Measured values from IntAct's records for PubMed 23263282.

B1: Telomere length regulation protein TEL2 homolog (Homo sapiens), Q9Y4R8 (parent)
chain: MEPAPSEVRLAVREAIHALSSSEDGGHIFCTLESLKRYLGEMEPPALPREKEEFASAHFSPVLRCLASRLSPAWLELLPHGRLEELWASFFLEGPADQAFLVLMETIEGAAGPSFRLMKMARLLARFLREGRLAVLMEAQCRQQTQPGFILLRETLLGKVVALPDHLGNRLQQENLAEFFPQNYFRLLGEEVVRVLQAVVDSLQGGLDSSVSFVSQVLGKACVHGRQQEILGVLVPRLAALTQGSYLHQRVCWRLVEQVPDRAMEAVLTGLVEAALGPEVLSRLLGNLVVKNKKAQFVMTQKLLFLQSRLTTPMLQSLLGHLAMDSQRRPLLLQVLKELLETWGSSSAIRHTPLPQQRHVSKAVLICLAQLGEPELRDSRDELLASMMAGVKCRLDSSLPPVRRLGMIVAEVVSARIHPEGPPLKFQYEEDELSLELLALASPQPAGDGASEAGTSLVPATAEPPAETPAEIVDGGVPQAQLAGSDSDLDSDDEFVPYDMSGDRELKSSKAPAYVRDCVEALTTSEDIERWEAALRALEGLVYRSPTATREVSVELAKVLLHLEEKTCVVGFAGLRQRALVAVTVTDPAPVADYLTSQFYALNYSLRQRMDILDVLTLAAQELSRPGCLGRTPQPGSPSPNTPCLPEAAVSQPGSAVASDWRVVVEERIRSKTQRLSKGGPRQGPAGSPSRFNSVAGHFFFPLLQRFDRPLVTFDLLGEDQLVLGRLAHTLGALMCLAVNTTVAVAMGKALLEFVWALRFHIDAYVRQGLLSAVSSVLLSLPAARLLEDLMDELLEARSWLADVAEKDPDEDCRTLALRALLLLQRLKNRLLPPASP
partner: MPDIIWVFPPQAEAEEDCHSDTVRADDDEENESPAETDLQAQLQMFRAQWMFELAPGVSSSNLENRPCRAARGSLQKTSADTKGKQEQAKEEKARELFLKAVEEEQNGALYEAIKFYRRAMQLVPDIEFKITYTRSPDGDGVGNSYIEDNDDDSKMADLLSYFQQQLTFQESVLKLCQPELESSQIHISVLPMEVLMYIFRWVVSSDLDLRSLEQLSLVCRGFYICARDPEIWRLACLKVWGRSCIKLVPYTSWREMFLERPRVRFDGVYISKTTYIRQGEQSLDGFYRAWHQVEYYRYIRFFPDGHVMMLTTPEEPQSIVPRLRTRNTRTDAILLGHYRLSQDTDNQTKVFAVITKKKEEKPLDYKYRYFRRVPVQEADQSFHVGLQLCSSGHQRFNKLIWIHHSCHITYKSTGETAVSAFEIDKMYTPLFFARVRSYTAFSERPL
B2: TELO2-interacting protein 1 homolog (Homo sapiens), O43156 (parent)
chain: MAVFDTPEEAFGVLRPVCVQLTKTQTVENVEHLQTRLQAVSDSALQELQQYILFPLRFTLKTPGPKRERLIQSVVECLTFVLSSTCVKEQELLQELFSELSACLYSPSSQKPAAVSEELKLAVIQGLSTLMHSAYGDIILTFYEPSILPRLGFAVSLLLGLAEQEKSKQIKIAALKCLQVLLLQCDCQDHPRSLDELEQKQLGDLFASFLPGISTALTRLITGDFKQGHSIVVSSLKIFYKTVSFIMADEQLKRISKVQAKPAVEHRVAELMVYREADWVKKTGDKLTILIKKIIECVSVHPHWKVRLELVELVEDLLLKCSQSLVECAGPLLKALVGLVNDESPEIQAQCNKVLRHFADQKVVVGNKALADILSESLHSLATSLPRLMNSQDDQGKFSTLSLLLGYLKLLGPKINFVLNSVAHLQRLSKALIQVLELDVADIKIVEERRWNSDDLNASPKTSATQPWNRIQRRYFRFFTDERIFMLLRQVCQLLGYYGNLYLLVDHFMELYHQSVVYRKQAAMILNELVTGAAGLEVEDLHEKHIKTNPEELREIVTSILEEYTSQENWYLVTCLETEEMGEELMMEHPGLQAITSGEHTCQVTSFLAFSKPSPTICSMNSNIWQICIQLEGIGQFAYALGKDFCLLLMSALYPVLEKAGDQTLLISQVATSTMMDVCRACGYDSLQHLINQNSDYLVNGISLNLRHLALHPHTPKVLEVMLRNSDANLLPLVADVVQDVLATLDQFYDKRAASFVSVLHALMAALAQWFPDTGNLGHLQEQSLGEEGSHLNQRPAALEKSTTTAEDIEQFLLNYLKEKDVADGNVSDFDNEEEEQSVPPKVDENDTRPDVEPPLPLQIQIAMDVMERCIHLLSDKNLQIRLKVLDVLDLCVVVLQSHKNQLLPLAHQAWPSLVHRLTRDAPLAVLRAFKVLRTLGSKCGDFLRSRFCKDVLPKLAGSLVTQAPISARAGPVYSHTLAFKLQLAVLQGLGPLCERLDLGEGDLNKVADACLIYLSVKQPVKLQEAARSVFLHLMKVDPDSTWFLLNELYCPVQFTPPHPSLHPVQLHGASGQQNPYTTNVLQLLKELQ
partner: B1 partner

Variants of: B1
Conditions: with fbx9_human FBXO9, Q9UK97

Row | Variant | effect of a mutation on the interaction
1 | S485A;S487A | decreasing interaction strength

Variants of: B2
Conditions: with fbx9_human FBXO9, Q9UK97

Row | Variant | effect of a mutation on the interaction
2 | S828A | disrupting interaction strength
